Experimental data from the supplement of paper PMC10724198.
± gives the standard deviation of the averaged measurements.

What follows are sequences tested on Saccharomyces cerevisiae (assay: protein stability index of tFT-peptide fusion (C-terminal peptide) (PSI (0-1 scale)); higher = more stable (slower turnover)). Settings: genetic background: wild type; temperature: 30 C.
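Also: PSI is a weighted mean of sequencing reads over stability bins, variants kept only with over 10 reads, mCherry proximal and sfGFP distal, peptide attached via GGGS linker.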

Sequence | protein stability index
GCRARKSRRTPT | 0.664 ± 0.011
GWWLFRSRWWHE | 0.573 ± 0.022
SFASGFFVVKDF | 0.658 ± 0.031
LACGWCVAVYRG | 0.644 ± 0.049
SPPPSSPPAPPR | 0.717 ± 0.11
GVEGASVLGWGR | 0.704 ± 0.19
AVSCTAWVTALG | 0.522 ± 0.012
LSALPLTRPLAR | 0.709 ± 0.043
SLPPHHLLISNA | 0.645 ± 0.028
KALKNEYRYRAF | 0.645 ± 0.073
RIVMSSDHTFQG | 0.635 ± 0.0072
GGGGGWGGGGGG | 0.7 ± 0.087
CSRDNRTSRSIL | 0.681 ± 0.032
TYRLSHFFKILP | 0.566 ± 0.013
KQQRKNEKTNTL | 0.658 ± 0.16
VLPTHCPPPSSR | 0.715 ± 0.017
RERVVSVKLGGG | 0.688 ± 0.018
KKKKIKKNKKQL | 0.684 ± 0.01
RWLGNPLLQRYH | 0.567 ± 0.043
RSCGKAYNLLPL | 0.683 ± 0.052
GATGGAWGVWAG | 0.676 ± 0.019
ILPCLSVRFFAP | 0.658 ± 0.0068
KIKNHQRQIMNT | 0.494 ± 0.092
PPTRSLYLLPLI | 0.6983 ± 0.0035
PRPPTSPPSLHP | 0.7 ± 0.025
QWGRGGRHVTDI | 0.669 ± 0.038

Sequence | protein stability index
DRLGFGPVSRID | 0.665 ± 0.064
RPGLWGNEVGGN | 0.735 ± 0.013
RAVESPDKSSCE | 0.664 ± 0.11
KKRRTIKSQSKV | 0.6825 ± 0.0049
GGGAWGGMCGVV | 0.717 ± 0.047
PPALPLFPNAAG | 0.709 ± 0.049
GGGRGRAGVGVW | 0.714 ± 0.05
GIAACASSGLAV | 0.657 ± 0.034
PPASPPAYVTHP | 0.685 ± 0.049
FDSLFVSLSFAI | 0.661 ± 0.03
VLRVSRHLKAVK | 0.65 ± 0.024
APPPLPSLPPSP | 0.701 ± 0.017
GLGLGGRGMRVV | 0.687 ± 0.018
GSGVVVEGFLPD | 0.65 ± 0.021
RLATRPILDLPP | 0.519 ± 0.026
VCGNRLSATAIT | 0.684 ± 0.084
GGVEWEQQGRKE | 0.706 ± 0.072
GVGEWRSGVGVG | 0.592 ± 0.043
PPHPPLPARPSP | 0.681 ± 0.041
AGPKYHLGIPAP | 0.678 ± 0.014
VFPLWLRRPFPF | 0.695 ± 0.041
WRSGGGGGPAGV | 0.6762 ± 0.0032
LPCPSPPPSPLS | 0.675 ± 0.06
RKGRETGTKERE | 0.671 ± 0.036
GGWGRRRLDGGR | 0.7221 ± 0.0064
TLGGRPFQGTPA | 0.698 ± 0.016

Sequence | protein stability index
APRRVPWLLGRV | 0.578 ± 0.099
RQAIGRDTPRDP | 0.649 ± 0.0073
GITWSYNKSISH | 0.722 ± 0.048
DILLPFQFLDDF | 0.6927 ± 0.00039
GRASAGVLLCDG | 0.659 ± 0.028
PPLPPRTPPPLS | 0.704 ± 0.077
FFLWSLLGGLPC | 0.661 ± 0.02
PLYLAYKDTLLS | 0.69 ± 0.035
VVRLKRLPPCSS | 0.699 ± 0.077
RSGWSYRDRGPS | 0.651 ± 0.082
RVSYLLPFCSSV | 0.762 ± 0.11
PVPLPSPFPLPL | 0.664 ± 0.0093
SSRALFLPSFLP | 0.731 ± 0.04
GGGLWLYKKLVF | 0.682 ± 0.13
DRPSPGLALGGP | 0.7314 ± 0.0023
LGGGEGKRVCEG | 0.668 ± 0.017
NSTPTTPPIPHQ | 0.702 ± 0.091
ACSSGGVGWGSV | 0.66 ± 0.034
RNTRVSLPPRGQ | 0.63 ± 0.041
VNCAYCRERKRD | 0.7209 ± 0.0031
VGVSGVCGDWAM | 0.67 ± 0.05
WIRRWVGVEGPL | 0.707 ± 0.079
VDEREKGSKQGK | 0.689 ± 0.031
GGGERCEGVWVE | 0.579 ± 0.01
PPPHPTLSPLVP | 0.676 ± 0.013
AYCGGSNKCTTE | 0.732 ± 0.026

Sequence | protein stability index
GRLGRHFSVKFL | 0.6584 ± 0.0052
LRFIIPSDLSFV | 0.696 ± 0.03
FLDFLFLLVPSV | 0.554 ± 0.019
FLYELGTTSSPR | 0.73 ± 0.025
DPRAGLGLLELT | 0.644 ± 0.067
FKTLIRKEQESE | 0.754 ± 0.013
LTVRVTSQPFDL | 0.658 ± 0.015
VEARKKTLNTGP | 0.713 ± 0.033
KTLRRGYDWLQG | 0.681 ± 0.038
IILRSSLLPLLY | 0.548 ± 0.013
ESLRNGKKYNKL | 0.7417 ± 0.0017
RTNGNIKNVNIE | 0.684 ± 0.07
AFGCGGVPGDFA | 0.63 ± 0.015
FPLPHVIPSPAS | 0.559 ± 0.022
IIAESPWFLIIR | 0.444 ± 0.094
PVAPPQLSPPSS | 0.6704 ± 0.0048
KIKTTKKIKKKK | 0.681 ± 0.032
GYLNCFGYVWGP | 0.653 ± 0.04
FLRLVRIPNQVQ | 0.6531 ± 0.0014
LMCSSGGGCSCG | 0.706 ± 0.023
PTPFVPSPPCRA | 0.664 ± 0.041
CGVGWSWTWSGW | 0.698 ± 0.078
KAVSRQSEATPV | 0.76 ± 0.093
LRVNFPLHDPHP | 0.65 ± 0.049
PSIHCLSATQTW | 0.672 ± 0.068
PPPPPSSPPLPP | 0.64 ± 0.083

Sequence | protein stability index
LLSTPPIVSPPA | 0.6987 ± 0.0031
EVWQGRLKGVLG | 0.691 ± 0.031
SPGPRLSTRLRQ | 0.701 ± 0.077
GLGATSGGLRCG | 0.654 ± 0.014
IINKKANQKKKE | 0.68 ± 0.032
PLPPPPVPPTPS | 0.606 ± 0.012
GLSFITAGGLVF | 0.688 ± 0.052
RKAKHWKNKIQK | 0.737 ± 0.048
LEIRKKGNKIRE | 0.6 ± 0.041
LSIGDLTIEKKL | 0.686 ± 0.022
VGGGGLSGGAER | 0.678 ± 0.0093
GGGIVGWFCRGR | 0.675 ± 0.068
VRSCFPVGMVWR | 0.72087 ± 0.00045
DKGTMNRARGGS | 0.683 ± 0.024
TDNVVAEKRKSK | 0.701 ± 0.18
PPPRVHPCHPPC | 0.678 ± 0.031
PSSSSPPSLTPA | 0.672 ± 0.097
IIQTTKPTRNIK | 0.67 ± 0.022
GCSQGGRRSGNE | 0.644 ± 0.029
PLHLPPPFSPRP | 0.7333 ± 0.0063
LDIGVADAQRML | 0.701 ± 0.14
VLCRPLLPTSRL | 0.772 ± 0.02
KKTRGNNGKTQR | 0.631 ± 0.0076
GFLIGRLGEGSG | 0.728 ± 0.023
LVGGGVGVGSLV | 0.66 ± 0.011
LWFCGLWPRVSG | 0.6384 ± 0.00068

Sequence | protein stability index
GRERASHRGPRN | 0.648 ± 0.0066
WGRRNFLPNSPR | 0.67 ± 0.049
SPFPAWPIPASV | 0.612 ± 0.036
DLTPLSSSRLPP | 0.652 ± 0.04
WRTRRVVFPNWH | 0.666 ± 0.008
LGVGGRGVVPGA | 0.7 ± 0.031
GPTPHPVPTTCS | 0.69 ± 0.016
GVGLSGEGGLGR | 0.642 ± 0.015
KRRAERKKRSKG | 0.6731 ± 0.006
RIRRERRIGLKV | 0.559 ± 0.0092
PSSSSPPPTFSL | 0.625 ± 0.066
CLRTVGIAQSSG | 0.7019 ± 0.00094
APGSPLDPLTMF | 0.6535 ± 0.0041
KALGLRDHAILD | 0.6583 ± 0.004
PPPRPPSPPPPS | 0.699 ± 0.035
EREGVREGEGRV | 0.654 ± 0.02
RNLPAHQARPDE | 0.6751 ± 0.003
LGGRWVLGVRGV | 0.694 ± 0.029
SPPSPLYFCSRF | 0.661 ± 0.015
PFFRASFSGLID | 0.681 ± 0.061
HGSYYSAVWGKG | 0.684 ± 0.096
RYKISKKERIKK | 0.663 ± 0.072
FRNESLVAGKSG | 0.717 ± 0.076
PPGPAPPHAASH | 0.6421 ± 0.0029
RAPPPATLPPLQ | 0.661 ± 0.086
GGGLMVARFGPS | 0.664 ± 0.037

Sequence | protein stability index
SAYQDFTAILLG | 0.703 ± 0.16
CVSWFWVGYWWG | 0.516 ± 0.0086
LSSFPLPFPPPL | 0.659 ± 0.013
RYTQQTTATYHN | 0.749 ± 0.079
GVGGEPDLADWG | 0.762 ± 0.023
EQGIRHVRAIVV | 0.539 ± 0.012
QNQKKHTRQQNQ | 0.722 ± 0.072
CGRACWTGEDDV | 0.68 ± 0.037
RKICINIEKKGE | 0.682 ± 0.018
EGVGRRICSPQA | 0.648 ± 0.031
PPPHPPLPPPTP | 0.678 ± 0.039
FPFCAFPPSPTC | 0.75 ± 0.038
HALFPRAPSPPW | 0.7513 ± 0.0055
PPPLPLSLCEPL | 0.7 ± 0.019
KRARLWQKRVEK | 0.754 ± 0.14
VGAGAGGGGWVL | 0.782 ± 0.017
HPAAPPPPPPPR | 0.732 ± 0.066
PPTPAAPGLPPA | 0.677 ± 0.035
PHPPPAPDAPCV | 0.683 ± 0.036
FDLLSVGRARSW | 0.716 ± 0.036
EKTQQMPQPNNQ | 0.663 ± 0.007
FSGWVFAPFFFF | 0.644 ± 0.048
VVGRTNRYAVPH | 0.662 ± 0.061
YCRQVSYERPTK | 0.743 ± 0.077
DQFRLLQYWEAS | 0.72 ± 0.048
VPLRVSLGCDAF | 0.67 ± 0.04

Sequence | protein stability index
QKKKDKKKQNRT | 0.666 ± 0.029
VRRILLGPPGRD | 0.653 ± 0.085
LRFELCLCIEPA | 0.53 ± 0.059
QEPARPTGPGQS | 0.628 ± 0.019
LWIVLFRKCELP | 0.592 ± 0.018
PLYPPPVNIPPT | 0.81 ± 0.067
CSPMFTRQPLPL | 0.645 ± 0.027
VHRYGGFRGEMS | 0.702 ± 0.08
PHPTLATPPRRR | 0.667 ± 0.096
PPLVHHSTLPPA | 0.679 ± 0.022
GSIWVVGGGQGV | 0.731 ± 0.048
PPPARSPLPLPP | 0.742 ± 0.018
LTSVQFNKWTIE | 0.714 ± 0.047
PPAPFLLNPVPP | 0.727 ± 0.015
QWGGEGWILGGV | 0.698 ± 0.031
RSRPPVHVAAAL | 0.673 ± 0.074
RPKGREKGEGRG | 0.733 ± 0.077
VSVGCLFVVGRG | 0.713 ± 0.039
EKRDENENTNKK | 0.66 ± 0.072
RLGGAACLRSEC | 0.627 ± 0.04
